Data taken from the supplement of paper PMC6757056.
± gives the standard deviation of the averaged measurements.

B1: library; a variant is named by its letters at N, in order (parent)
chain: GCUGUCACCGGUGUAUUACCCUAGUGGUCGACCGGUCUGAUGAGUCUNNNNNNAGACGAAACAGC

Experiments:
hypoxanthine [1] = variants of: B1; assay: FACS-Seq fitted mean relative fluorescence mCherry/BFP without ligand (log10 relative fluorescence); ligand: hypoxanthine (xanthine aptamer); higher = higher reporter protein expression; settings: HEK293T, ligand present: no
Experimental: (§1)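 Hammerhead (sTRSV) ribozyme switch libraries with a ligand aptamer grafted on stem I and a randomized N4-6 loop II, cloned into the 3' UTR of mCherry and transiently transfected into HEK293T cells; RNA-Seq 72 h post transfection with ligand added 1 h before transfection; RNA read count / plasmid DNA read count normalized to the non-cleaving sTRSVctl (x100), log10; sequences with >100 DNA reads. FACS-Seq: lentiviral library sorted into 6 bins after 48 h ligand, log-normal fit mean of mCherry/BFP scaled to controls. Printed sequences are partial switch sequences.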

hypoxanthine [2] = variants of: B1; assay: normalized RNA/DNA level with ligand (relative to sTRSVctl = 100) (log10 (% of sTRSVctl)); ligand: hypoxanthine (xanthine aptamer); higher = less ribozyme self-cleavage, higher mRNA level; settings: ligand concentration (+) RNA-Seq: 5 mM, HEK293T, reporter: mCherry (pCS4076), ligand present: yes
Experimental: as §1

hypoxanthine [3] = variants of: B1; assay: normalized RNA/DNA level without ligand (relative to sTRSVctl = 100) (log10 (% of sTRSVctl)); ligand: hypoxanthine (xanthine aptamer); higher = less ribozyme self-cleavage, higher mRNA level; settings: HEK293T, reporter: mCherry (pCS4076), ligand present: no
Experimental: as §1

hypoxanthine [4] = variants of: B1; assay: FACS-Seq fitted mean relative fluorescence mCherry/BFP with ligand (log10 relative fluorescence); ligand: hypoxanthine (xanthine aptamer); ligand concentration (+) FACS-Seq: 5 mM; higher = higher reporter protein expression; settings: HEK293T, ligand present: yes
Experimental: as §1

Row | Variant | FACS-Seq fitted mean (log10) (hypoxanthine [1]) | normalized RNA/DNA level with ligand (log10) (hypoxanthine [2]) | normalized RNA/DNA level without ligand (log10) (hypoxanthine [3]) | FACS-Seq fitted mean (log10) (hypoxanthine [4])
1 | GCUGUCACCGGUGUAUUACCCUAGUGGUCGACCGGUCUGAUGAGUCUGAAGCAAGACGAAACAGC [GAAGCA] | 0.802 ± 0.069 | 1.96 ± 0.03 | 1.76 ± 0.049 | 0.779 ± 0.075
2 | GCUGUCACCGGUGUAUUACCCUAGUGGUCGACCGGUCUGAUGAGUCUGAAGCGAGACGAAACAGC [GAAGCG] | 0.1393 ± 0.001 | 1.8561 ± 0.0014 | 1.4 ± 0.075 | 0.56 ± 0.016
3 | GCUGUCACCGGUGUAUUACCCUAGUGGUCGACCGGUCUGAUGAGUCUCAAGGUAGACGAAACAGC [CAAGGU] | 0.232 ± 0.021 | 1.883 ± 0.015 | 1.78 ± 0.029 | 0.388 ± 0.027
4 | GCUGUCACCGGUGUAUUACCCUAGUGGUCGACCGGUCUGAUGAGUCUCAAGGCAGACGAAACAGC [CAAGGC] | -0.0753 ± 0.017 | 1.936 ± 0.017 | 1.84 ± 0.024 | -0.0781 ± 0.056
5 | GCUGUCACCGGUGUAUUACCCUAGUGGUCGACCGGUCUGAUGAGUCUAAAGCGAGACGAAACAGC [AAAGCG] | 0.0919 ± 0.015 | 1.82 ± 0.026 | 1.32 ± 0.086 | 0.539 ± 0.023
6 | GCUGUCACCGGUGUAUUACCCUAGUGGUCGACCGGUCUGAUGAGUCUAAAGCUAGACGAAACAGC [AAAGCU] | -0.307 ± 0.014 | 1.94 ± 0.026 | 1.85 ± 0.034 | -0.41 ± 0.022
7 | GCUGUCACCGGUGUAUUACCCUAGUGGUCGACCGGUCUGAUGAGUCUAAAGCAAGACGAAACAGC [AAAGCA] | 0.391 ± 0.034 | 1.93 ± 0.043 | 1.77 ± 0.035 | 0.503 ± 0.023
8 | GCUGUCACCGGUGUAUUACCCUAGUGGUCGACCGGUCUGAUGAGUCUUAAGGUAGACGAAACAGC [UAAGGU] | 0.356 ± 0.021 | 1.94 ± 0.042 | 1.53 ± 0.027 | 0.602 ± 0.06
9 | GCUGUCACCGGUGUAUUACCCUAGUGGUCGACCGGUCUGAUGAGUCUUAAGGGAGACGAAACAGC [UAAGGG] | 0.3343 ± 0.00083 | 1.878 ± 0.013 | 1.4441 ± 0.0011 | 0.519 ± 0.015
10 | GCUGUCACCGGUGUAUUACCCUAGUGGUCGACCGGUCUGAUGAGUCUUAAGGAAGACGAAACAGC [UAAGGA] | 0.215 ± 0.031 | 1.88 ± 0.041 | 1.608 ± 0.0063 | 0.472 ± 0.057
11 | GCUGUCACCGGUGUAUUACCCUAGUGGUCGACCGGUCUGAUGAGUCUAAAGGCAGACGAAACAGC [AAAGGC] | -0.66 ± 0.0082 | 1.91 ± 0.035 | 1.781 ± 0.0092 | -0.684 ± 0.085
12 | GCUGUCACCGGUGUAUUACCCUAGUGGUCGACCGGUCUGAUGAGUCUAAAGGAAGACGAAACAGC [AAAGGA] | 0.0795 ± 0.041 | 1.9 ± 0.031 | 1.58 ± 0.037 | -0.105 ± 0.2
13 | GCUGUCACCGGUGUAUUACCCUAGUGGUCGACCGGUCUGAUGAGUCUAAAGGUAGACGAAACAGC [AAAGGU] | 0.195 ± 0.021 | 1.9 ± 0.054 | 1.61 ± 0.053 | 0.526 ± 0.025
14 | GCUGUCACCGGUGUAUUACCCUAGUGGUCGACCGGUCUGAUGAGUCUAAAGGGAGACGAAACAGC [AAAGGG] | 0.0328 ± 0.0085 | 1.753 ± 0.0035 | 1.32 ± 0.073 | 0.292 ± 0.084
15 | GCUGUCACCGGUGUAUUACCCUAGUGGUCGACCGGUCUGAUGAGUCUUAAGCGAGACGAAACAGC [UAAGCG] | -0.442 ± 0.031 | 1.909 ± 0.0091 | 1.6 ± 0.024 | 0.233 ± 0.018
16 | GCUGUCACCGGUGUAUUACCCUAGUGGUCGACCGGUCUGAUGAGUCUGAAGGGAGACGAAACAGC [GAAGGG] | -0.0424 ± 0.023 | 1.806 ± 0.01 | 1.324 ± 0.0061 | 0.431 ± 0.059
17 | GCUGUCACCGGUGUAUUACCCUAGUGGUCGACCGGUCUGAUGAGUCUGAAGGAAGACGAAACAGC [GAAGGA] | 0.247 ± 0.034 | 1.92 ± 0.021 | 1.64 ± 0.031 | 0.559 ± 0.021
18 | GCUGUCACCGGUGUAUUACCCUAGUGGUCGACCGGUCUGAUGAGUCUAAAGAUAGACGAAACAGC [AAAGAU] | 0.523 ± 0.055 | 1.895 ± 0.016 | 1.68 ± 0.017 | 0.708 ± 0.025
19 | GCUGUCACCGGUGUAUUACCCUAGUGGUCGACCGGUCUGAUGAGUCUCAAGCAAGACGAAACAGC [CAAGCA] | 0.544 ± 0.054 | 1.964 ± 0.012 | 1.7 ± 0.063 | 0.609 ± 0.094
20 | GCUGUCACCGGUGUAUUACCCUAGUGGUCGACCGGUCUGAUGAGUCUCAAGCCAGACGAAACAGC [CAAGCC] | 0.17 ± 0.076 | 1.96 ± 0.011 | 1.87 ± 0.028 | 0.404 ± 0.0094
21 | GCUGUCACCGGUGUAUUACCCUAGUGGUCGACCGGUCUGAUGAGUCUAAAGUAAGACGAAACAGC [AAAGUA] | 0.554 ± 0.029 | 1.9 ± 0.023 | 1.73 ± 0.053 | 0.61 ± 0.032
